Measurements published in patent US20160083428A1 (CARMEL HAIFA UNIVERSITY ECONOMIC, published 2016).
Ends that are not written are not given here. * marks the point of attachment. Biotin = O=C1N[C@H]2[C@H](CS[C@H]2CCCCC(=O)*)N1

Target: eukaryotic elongation factor 2 (eEF2) (rat, UniProt P05197 2-858)
Assay: pull-down from rat brain homogenate with streptavidin agarose, Western blot

binding result: no binding (tested: 20 micrograms)
B1: peptide 1 (Ac-RRQRYTPFPLGFE-Lys(Biotin)-NH2-OH), peptide derived from the G-H loop of ephrinA4 (peptide)
peptide: Ac-RRQRYTPFPLGFEK(Biotin)
modifications: not fully specified; printed as Ac-RRQRYTPFPLGFE-Lys(Biotin)-NH2-OH
notes: also called pep-ephrinA4; ephrinA4 peptide
